Molecular target: aimp2_crigr AIMP2 (UniProt Q9WVM7)
Sequence (Q9WVM7 whole entry): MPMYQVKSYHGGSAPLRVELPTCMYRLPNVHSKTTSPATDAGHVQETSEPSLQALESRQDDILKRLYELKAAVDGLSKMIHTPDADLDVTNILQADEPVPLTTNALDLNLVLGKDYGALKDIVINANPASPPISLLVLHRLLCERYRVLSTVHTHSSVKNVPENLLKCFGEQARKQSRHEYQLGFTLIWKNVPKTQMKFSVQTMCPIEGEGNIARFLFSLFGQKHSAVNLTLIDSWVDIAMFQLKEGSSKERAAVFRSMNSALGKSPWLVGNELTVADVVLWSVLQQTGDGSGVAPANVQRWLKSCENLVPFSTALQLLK

Chain of Lysine--tRNA ligase (Cricetulus griseus (Chinese hamster)), P37879 P200L (P37879 whole entry P200L): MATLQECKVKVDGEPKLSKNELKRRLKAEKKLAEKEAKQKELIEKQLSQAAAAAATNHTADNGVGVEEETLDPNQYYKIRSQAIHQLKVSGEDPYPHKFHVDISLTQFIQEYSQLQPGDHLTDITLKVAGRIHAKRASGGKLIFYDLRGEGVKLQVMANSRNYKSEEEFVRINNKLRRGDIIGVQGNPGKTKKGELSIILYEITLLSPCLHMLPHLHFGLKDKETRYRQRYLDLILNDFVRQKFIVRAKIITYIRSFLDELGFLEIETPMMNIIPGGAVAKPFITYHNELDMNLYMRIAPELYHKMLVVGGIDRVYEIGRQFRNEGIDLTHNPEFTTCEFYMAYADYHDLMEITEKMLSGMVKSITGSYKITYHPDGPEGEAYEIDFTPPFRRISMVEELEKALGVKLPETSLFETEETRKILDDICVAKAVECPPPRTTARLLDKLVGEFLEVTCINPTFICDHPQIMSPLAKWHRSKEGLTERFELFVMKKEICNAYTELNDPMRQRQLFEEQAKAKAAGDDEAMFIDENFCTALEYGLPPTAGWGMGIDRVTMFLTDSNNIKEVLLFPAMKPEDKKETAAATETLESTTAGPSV
Chain of Lysine--tRNA ligase (Cricetulus griseus (Chinese hamster)), P37879 F263V (P37879 whole entry F263V): as the sequence (P37879 whole entry P200L) above, with L200P, F263V counted along it

Row | Substance | effect of a mutation on the interaction
1 | Lysine--tRNA ligase (Cricetulus griseus (Chinese hamster)), P37879 F263V | decreasing interaction strength
2 | Lysine--tRNA ligase (Cricetulus griseus (Chinese hamster)), P37879 P200L | decreasing interaction strength

— IntAct's records for PubMed 31116475
